From the Human Domainome abundance scans (Beltran et al. 2025)

B1: WW domain-containing transcription regulator protein 1, residues 116 to 162; numbered along this chain, Q9GZV5 (parent)
chain: QSYDVTDELPLPPGWEMTFTATGQRYFLNHIEKITTWQDPRKAMNQP
B2: Protein S100-G, residues 1 to 79; numbered along this chain, P02633 (parent)
chain: MSAKKSPEELKGIFEKYAAKEGDPNQLSKEELKLLLQTEFPSLLKGPSTLDELFEELDKNGDGEVSFEEFQVLVKKISQ

Variants of: B1
Assay: abundance fitness (aPCA) (normalised: wild type 0, dead -1); higher = more abundant; growth selection in yeast, the domain comes from the species named
Details: Homo sapiens

Abundance fitness: each site, then its substitutions
R25: E -0.26; A -0.261; K -0.016
H30: N -0.088
D39: L -0.599; C -0.572; R -0.452

Variants of: B2
Assay: as above
Details: Bos taurus

Abundance fitness: each site, then its substitutions
Q71: F -0.107; G 0.009; C -0.101; D -0.038; S 0.017; Y -0.168; H -0.029; M -0.032; T -0.031; N -0.06; I -0.054; L 0.031; K -0.074; E 0.068; P -0.25; V -0.058; R -0.091; A -0.031; W -0.244
L73: D -0.668; K -0.413; P -0.797; E -0.247; M -0.05; A -0.112; G -0.041; W 0.015; V -0.017; Q -0.28; I -0.016; C 0.065; R -0.473; N -0.273; F -0.124; S -0.187; H -0.151; T -0.071; Y -0.05
E69: F -0.215; W -0.253; V -0.021; C -0.074; M 0.022; H -0.007; T -0.013; D 0.009; A -0.04; L -0.006; K -0.016; N -0.215; Q 0.016; G 0.06; I -0.055; S -0.07; R -0.056
Q79: S 0.041; K 0.046; E 0.272; D -0.191; T 0.085; R 0.16; N -0.154; C -0.032; G 0.074; Y -0.148; P 0.254; W -0.086; M 0.026; L -0.017; A 0.008; H -0.048; V -0.086; I -0.346
E68: M -0.044; D -0.005; H -0.001; P 0.009
